In patent publication US20210145860A1 one finds decrease in GFP mean fluorescence intensity (MFI), flow cytometry of HeLa cells data, which are given here for one substance.

The target in this experiment is green fluorescent protein (GFP) [GFP: P42212]. As to the kind of experiment: cell-based or functional assay.

Sequence of E3-ubiquitin ligase encoded by mRNA Construct G of Table 1 (ER signal-vhhGFP4-cereblon-FLAG-ER retention sequence) (Q96SW2 whole entry): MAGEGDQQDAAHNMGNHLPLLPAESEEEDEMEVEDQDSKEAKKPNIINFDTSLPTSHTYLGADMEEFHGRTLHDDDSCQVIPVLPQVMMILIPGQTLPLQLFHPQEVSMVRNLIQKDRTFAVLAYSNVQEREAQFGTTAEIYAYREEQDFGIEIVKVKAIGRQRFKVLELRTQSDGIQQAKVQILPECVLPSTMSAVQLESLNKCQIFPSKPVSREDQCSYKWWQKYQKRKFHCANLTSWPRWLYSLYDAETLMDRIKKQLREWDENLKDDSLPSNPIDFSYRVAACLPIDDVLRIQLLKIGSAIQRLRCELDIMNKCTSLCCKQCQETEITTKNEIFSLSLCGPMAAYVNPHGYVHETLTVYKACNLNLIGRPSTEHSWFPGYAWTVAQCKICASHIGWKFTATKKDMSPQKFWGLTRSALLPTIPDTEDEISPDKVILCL

“E3-ubiquitin ligase encoded by mRNA Construct G of Table 1 (ER signal-vhhGFP4-cereblon-FLAG-ER retention sequence) (from UniProt Q96SW2 1-442)” had a decrease in GFP mean fluorescence intensity (MFI), flow cytometry of HeLa cells at 10:1 Construct G:GFP RNA of 46%.
